The target in this assay is Staphylococcus aureus FrmB (Staphylococcus aureus Newman). As to the kind of experiment: SEC. For orientation: SEC sorts molecules by how far they enter the pores of the column.

As for Staphylococcus aureus FrmB (enzyme), the stoichiometry N (commonly a count of units in the complex or per binding partner) is 2.
